We go through 15 molecules from patent publication US20220144922A1 (Adimab, published 2022).

For assay [1], the target named is RSV F protein of subtype A strain A2, on virus (respiratory syncytial virus subtype A …, UniProt P03420 26-574). Put plainly: cell-based or functional assay.
Assay [2] deals with RSV F protein of subtype B strain 18537, on virus (respiratory syncytial virus subtype B …, UniProt P13843 26-574). Briefly: cell-based or functional assay.
Assay [3] has as its target T1, postfusion RSV F ectodomain, subtype B (respiratory syncytial virus subtype B).
T1 construct: extracellular domain; also called Postfusion subtype B
Briefly: BLI, IgG on sensor.
Procedure: (§1) IgG binding to DS-Cav1 and FA FP was determined by BLI measurements using a FortéBio Octet HTX instrument (Pall Life Sciences). […] Data was analyzed using the ForteBio Data Analysis Software 7. The data was fit to a 1:1 binding model to calculate an association and dissociation rate, and KD was calculated using the ratio kd/kₐ.

Assay [4] has as its target T2, postfusion RSV F ectodomain (F ΔFP), subtype A (respiratory syncytial virus subtype A, UniProt P03420 26-109; P03420 147-524).
T2 construct: extracellular domain; also called Postfusion subtype A
Put plainly: BLI, IgG on sensor.
Procedure: as §1

Assay [5] concerns the target T3, prefusion-stabilized RSV F ectodomain (DS-Cav1), subtype B (respiratory syncytial virus subtype B).
T3 construct: extracellular domain; also called Prefusion subtype B
Put plainly: BLI, IgG on sensor.
Procedure: as §1

B1: ADI-15626 (antibody, V domains shown)
VH: EVQLVESGAEVKKPGSSVKVSCKASGGTFSSYEISWVRQAPGQGLEWMGGINPMFGAANYAQKFQDRVTIIADKSTGTVYMELSSLRSEDTALYYCARERYPSTDDYYRSGRYYGEWGQGTTVTVSS
VL: ETTLTQSPSTLSASVGDRVTITCRASQSIRSWLAWYQQKPGKAPKLLIYRASTSDSGVPSRFSGSGSGTEFTLTISSLQPDDFAIYYCQQYNSIPVTFGQGTKLEIK
notes: IgG
Take B1: the “Neut IC50 (ug/ml) subtype A” value in assay [1] was found to be 14.2 µg/mL. The “Neut IC50 (ug/ml) subtype B” value in assay [2] was above 10 µg/mL. Further, the figures for the Kd in assay [3], in assay [4] and in assay [5] were 0.653 nM, 0.546 nM and 3.39 nM, respectively.

B2: ADI-15633 (antibody, V domains shown)
VH: QVQLVQSGAEVKKPGESLKISCKGSGYTFRMYWIGWARLLPGKGLEWIGIIYPGDSDTRYNPSLQGQVTMSVDKSINTAYLQWGSLKASDSAIYYCARLRLHPQSGMDVWGQGTLVTVSS
VL: NFMLTQPHSVSESPGKTVVISCTRSSGSIAGYYVQWYQHRPGSSPTTVIYEDDQRPSGVPDRFSGSVDSSSNSASLTISGLKTEDEADYYCQSYDNAIWVFGGGTKLTVL
notes: IgG
As for B2, in assay [1], the “Neut IC50 (ug/ml) subtype A” value worked out at 12.8 µg/mL. In addition, the “Neut IC50 (ug/ml) subtype B” value in assay [2] is above 10 µg/mL. Besides, the Kd in assay [3] is 0.111 nM; in assay [4], 0.104 nM; in assay [5] it was 0.896 nM.

B3: ADI-15576 (antibody, V domains shown)
VH: QVQLVQSGAAVKKPGESLKISCKGFGYSFTKYWIGWVRQVPGKGLEWIGIISPTDSNTRYSPSFRGQVTMSADKSISAAYLQWSSLKASDTAMYYCARHSSPYSSGWYGDTYFFDSWGQGTLVTVSS
VL: QPVLTQPPSASGTPGQRVTISCSGSNSNIGTNTVNWYQQLPGTAPKVLIHNNNERPSGVPDRFSGSKSGTSASLAISGLQSEDEADYYCAAWDDSLRGYVFGTGTKVTVL
notes: IgG; also called Antibody Number 146
For the molecule B3, the “Neut IC50 (ug/ml) subtype A” value in assay [1] is 6.08 µg/mL. The “Neut IC50 (ug/ml) subtype B” value in assay [2] came out at 9.86 µg/mL. Besides, the Kd in assay [3] was found to be 0.179 nM; in assay [4], 0.237 nM.

B4: ADI-15573 (antibody, V domains shown)
VH: QVQLVQSGAEVKKPGASVKISCKTSGYTFTSSVISWVRQAPGQGLEWVGWITGHRSSTNYAQRLQGRVTMTTDTSTSTAYMELRSLRSDDTAVYYCARADGGSGSYYSAWGQGTLVTVSS
VL: SYELTQPPSASVAPGKTARISCGGNNIGTKSVHWYQQKPGQAPVLVIYHDSHRPSGIPERFSGSNSGNTATLTISRVEAGDEADYYCQLWDSSSDSHVFGTGTKLTVL
notes: IgG; also called Antibody Number 143
As for B4, in assay [1], the “Neut IC50 (ug/ml) subtype A” value stood at 6.25 µg/mL. Besides, in assay [2], the “Neut IC50 (ug/ml) subtype B” value was determined as 1.67 µg/mL. The Kd was 0.199 nM in assay [3] and 0.198 nM in assay [4].

B5: ADI-15640 (antibody, V domains shown)
VH: QVQLVESGPALVKPTQTLTLTCAFSGFSLTTRGMSVSWIRQPPGKALEWLARIDWDDDKYYSTSLKTRLTISKDTSKNQVVLTMSNMDPVDTATYYCARASLYDSGGYYLFFFDYWGQGTLVTVSS
VL: DIVMTQSPSSLSASVGDRVTITCRASQSIGSYLNWYQQKPGKVPKLLIYAASNLQGGVPSRFRGSGSGTDFTLTISNLQPEDFASYYCQLSYSSLWTFGQGTKVEIK
notes: IgG; also called Antibody Number 204
For the molecule B5, in assay [1], the “Neut IC50 (ug/ml) subtype A” value is above 10 µg/mL. Further, the “Neut IC50 (ug/ml) subtype B” value in assay [2] worked out at 4.82 µg/mL. Besides, the Kd in assay [3] came to 0.196 nM; in assay [4], 0.169 nM; in assay [5], 1.49 nM.

B6: ADI-15627 (antibody, V domains shown)
VH: EVQLVESGGGVVQPGRSLRLSCAASGFTFSDYAMHWVRQAPGKGLEWVAVIWYDGGNKYYADSAKGRFTISRDNSKNTLYLQMNSLRAEDTAVYYCAKDRGSIWNVGDGMDVWGQGTTVTVSS
VL: QPVLTQPPSVSVAPGQTARVTCGGNNIGAKSVHWYQQKPGQAPVLVVDDDTDRPSGIPERFSGSNSGNTATLTISRVEAGDEADYYCQVWDASIGPLYVFGTGTKLTVL
notes: IgG; also called Antibody Number 192
As to B6, in assay [1], the “Neut IC50 (ug/ml) subtype A” value worked out at 2.17 µg/mL. For the same molecule, the “Neut IC50 (ug/ml) subtype B” value in assay [2] is 2.42 µg/mL. Further, the Kd in assay [3] came out at 0.137 nM; in assay [4], 0.158 nM; in assay [5], 1.61 nM.

B7: ADI-15619 (antibody, V domains shown)
VH: QVQLVQSGAEAKKPGASVKVSCTASGYTFTNDINWVRQATGQGLEWMGWMNPNNGHTGYGQKFEDRVTLTRDSSRSTAYMELSSLRFEDTAVYYCVYNFWSDSSVSWGRGTLVTVSS
VL: QSVVTQPPSVSGAPGQSVAISCTGSSSNIGPAYDVHWYQQTPGAAPKLLIYGDSNRPSGVPDRFSTSKSGTSASLAITGLQAEDEADYYCQSFDSSLRGYVFGTGTKVTVL
notes: IgG
With B7, the “Neut IC50 (ug/ml) subtype A” value in assay [1] was determined as 1.45 µg/mL. In assay [2], the “Neut IC50 (ug/ml) subtype B” value came to 0.377 µg/mL. For the same molecule, the Kd worked out at 2.21 nM in assay [3], 1.76 nM in assay [4] and 6.91 nM in assay [5].

B8: ADI-15629 (antibody, V domains shown)
VH: EVQLVESGGGLVQPGGSLRLSCAASGFTFSDFAMSWVRQAPGKGLEWVSLIKSSDYAYYADSVRGRFTISRDNSKNTLYLRMNSLRADDTAVYYCAKDADFWSGDSYNGGYNFDSWGQGTLVTVSS
VL: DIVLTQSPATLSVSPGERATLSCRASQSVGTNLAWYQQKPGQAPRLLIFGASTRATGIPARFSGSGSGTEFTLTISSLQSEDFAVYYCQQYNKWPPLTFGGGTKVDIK
notes: IgG
For B8, the “Neut IC50 (ug/ml) subtype A” value in assay [1] was 0.085 µg/mL. For the same molecule, the “Neut IC50 (ug/ml) subtype B” value in assay [2] turned out to be 0.088 µg/mL. The Kd in assay [3] was 0.213 nM; in assay [4], 0.228 nM; in assay [5] it was 0.36 nM.

B9: ADI-15644 (antibody, V domains shown)
VH: QVQLVQSGAEVKKPGSSVKVSCRTSGGTFSSFSISWVRQAPGQGLEWMGGIIPIFGTANYAKKFQGRVTITADESTDTAYMELRSLRSEDTAVYYCARDSPKISATEYYFDYWGQGTLVTVSS
VL: DIQVTQSPSTLSASVGDRVTITCRASQSFTSWLAWYQQKPGKAPKLLIYKASTLDSGVPSRFSGSGSGTEFTLTINGLQPDDFATYYCQHYDSYSGTFGQGTRLEIK
notes: IgG
Turning to B9, in assay [1], the “Neut IC50 (ug/ml) subtype A” value is above 10 µg/mL. In addition, the “Neut IC50 (ug/ml) subtype B” value in assay [2] was above 10 µg/mL. Further, the Kd in assay [3] was found to be 0.194 nM; in assay [4], 0.301 nM.

B10: ADI-15561 (antibody, V domains shown)
VH: QVQLVQSGAEVKKPGSSVKVSCKASGGTFSSYAINWVRQAPGQGLEWMGGIIPAFGTTIYAQRFQDRVTITADKSTSTAYMELRSLRSEDTAVYYCARSPPFWSDYSRGWFDPWGQGTLVTVSS
VL: ETTLTQSPSALSASVGDRVTITCRASQTISGYLNWYQQKPGKAPKLLIYAASSLQSGVPSRFSGSSAGTDFTLSISNLQPEDFATYYCQQSYTTPWTFGQGTKVEIK
notes: IgG; also called Antibody Number 132
On to B10, for which the “Neut IC50 (ug/ml) subtype A” value in assay [1] turned out to be 5.63 µg/mL. For the same molecule, the “Neut IC50 (ug/ml) subtype B” value in assay [2] came out at 22.4 µg/mL. The results for the Kd in assay [3], in assay [4] and in assay [5] were 1.08 nM, 0.591 nM and 8.62 nM, respectively.

B11: ADI-15653 (antibody, V domains shown)
VH: QVQLVQSGAEVKKPGSSVKVSCKSSGGTFSNYIISWVRQAPGQGLEWMGGIVPLSGTTDYAQKFQGRVTITADKSTTTAYMELRTLRPEDTAVYYCARGSGGSNAYFDPWGQGTLVTVSS
VL: QSVVTQPPSVSVAPGKTAKITCGGNNIGSKSVYWYQQKPGQAPVLVMYYDTYRPSGIPERFSGSNSGNSATLTISRVDAGDEADYYCQVWDSRSDHPYVFGSGTKLTVL
notes: IgG
Turning to B11, in assay [1], the “Neut IC50 (ug/ml) subtype A” value was above 10 µg/mL. For the same molecule, the “Neut IC50 (ug/ml) subtype B” value in assay [2] was above 10 µg/mL. Further, the values for the Kd in assay [3] and in assay [4] were 0.39 nM and 0.312 nM, respectively.

B12: ADI-15005 (antibody, V domains shown)
VH: QVQLVESGPALVKPTQTLTLTCSFSGFSLTTRRMCVSWIRQTPGKALEWLARIDWDDDKDYSTSLKTRLTISKDTSKNQVVLTMTNMDPVDTATYYCARTHIYDSSGYYLYYFDYWGQGTLVTVSS
VL: DIVLTQSPSSLSASIGDRVTITCRASQTIASYLNWYQQKPGKAPELLIYAATNLQSGVPSRFSGSGSGTDFTLTISSLRPEDFASYYCQQSYSSPWTFGQGTKVDIK
notes: IgG; also called Antibody Number 124
With B12, in assay [1], the “Neut IC50 (ug/ml) subtype A” value worked out at 2.16 µg/mL. Also, the “Neut IC50 (ug/ml) subtype B” value in assay [2] turned out to be 2.53 µg/mL. For the same molecule, the Kd is 0.253 nM in assay [3], 0.237 nM in assay [4] and 1.4 nM in assay [5].

B13: ADI-15666 (antibody, V domains shown)
VH: QVQLQQWGAGLLKPSETLSLTCGVSDGSFSAYYWNWIRQSPGKGLEWIGETNPSENTNYSPSLKNRVTISADRSANQFSLRLRSVTAADTGVYYCARGRGYYGSTTDYRGLHWFDPWGQGTLVTVSS
VL: ETTLTQSPVTLSVSPGERATLSCRASQSVSFNLAWYQQKPGQAPRLLIYGASTRVTNLPLRFSGSGSGTEFTLTISSLQSEDFAVYYCQQYNNWPRTFGQGTKLEIK
notes: IgG; also called Antibody Number 230
On to B13, for which the “Neut IC50 (ug/ml) subtype A” value in assay [1] amounted to 1.41 µg/mL. Also, the “Neut IC50 (ug/ml) subtype B” value in assay [2] is above 10 µg/mL. Also, the Kd in assay [3] turned out to be 0.546 nM; in assay [4] it was 0.499 nM.

B14: ADI-15612 (antibody, V domains shown)
VH: EVQLLESGGDLVQPGGSLRLSCAASGFPFSSHSMNWVRQAPGKGLEWISYISGGSDTIQYADSVKGRFTISRDNVKNSLYLQMNSLRAEDTAVYYCARDQYIWNYVEPLDYWGQGTLVTVSS
VL: DIQMTQSPSSLSASVGDRVTITCRASQDISYYLGWYQQKAGKAPKLLIYAVSNLQTGVPSRFSGSGSGTDFTLTISSLQPEDFATYYCLQDHTCPWTFGQGTKVEIK
notes: IgG
Turning to B14, the “Neut IC50 (ug/ml) subtype A” value in assay [1] turned out to be 0.053 µg/mL. In assay [2], the “Neut IC50 (ug/ml) subtype B” value turned out to be 0.164 µg/mL. Also, the equilibrium dissociation constant (Kd) was 0.353 nM in assay [3], 0.416 nM in assay [4] and 0.157 nM in assay [5].

B15: ADI-15578 (antibody, V domains shown)
VH: QVQLVQSGGGLVQPGGSLRLSCVGSGFTFSTYSMNWVRQAPGKGLEWVSHISSSSVTMYYADFVKGRFTISRDNAKNSLYLQMTSLRAEDTAVYYCARDAGPVWSGYYDYGMDVWGQGTTVTVSS
VL: ETTLTQSPATLSLSPGERATLSCRASQSVSSLLAWYQQKPGQAPRLLIFDASKRATGIPARFSGSGSGTDFTLTISSLEPEDFAVYYCQQRYNWPPLTFGGGTKVEIK
notes: IgG
Consider B15, for which the values for the Kd in assay [3] and in assay [4] were 1.54 nM and 1.27 nM, respectively.
